Measurements reported in article doi:10.1101/2023.06.09.544317 (bioRxiv, 2023).

What was measured:
mass photometry = biological target: the molecule itself; assay: mass photometry
cryo-EM structure = biological target: the molecule itself; assay: cryo-EM structure

Protein | stoichiometry N (mass photometry) | stoichiometry N (cryo-EM structure)
cysteine tRNA ligase from archaea (Q8U227) (enzyme, P. furiosus, UniProt Q8U227 1-477, looked up) MLKVYNTLTKQKEEFKPLREGEVKMYVCGPTVYDYPHLGHARTYIAFDVIRRYLEHKGYTVLMVMNFTDIDDKIIKRARETGEDPKELAERFIKIFLEDMEALKVKPADIYPRVTDHIDDIIEFIGKLKEKGYAYEGSDGIYFEVKKFPEYGKLSGVKIEDLQKGARVEPGEGKKNPEDFALWKKAKPGEPKWDSPWGEGRPGWHIECSVMSSKYLGESFDIHGGGNDLIFPHHENEIAQSEACFGHEWVKYWLHTGFVMVKGEKMSKSLGNFVTIRELLKRYEPEVIRFFVLQKHYRSPLEYTEEGLQHAKNNLQRLYNTLENIRVALRNAEISYTWGELEFKTYEIIREGKRKFYEAMDDDFNTAEALKAVFEVANAINKYLTEANKPKESILRKALEFFKIVSEVFGVFEDYFREETKEREESEKLIELLVEVRKQLRKEKRYELADMIREELKKLGIQLEDRGSETTWKRIIT | 2 | 
Q8U0N8, uncharacterized protein of unknown function from Pyrococcus furiosus (natural protein, UniProt Q8U0N8 1-392, looked up) MSESINNITKPKERRDFVVMAGMRKDGTIDFIKVYALNEKLAIEVLEAFLKENNIHPSDFIVIQRGYEDVKDKKAITTRSEEELSAMLGRLGLRLVSNGVLYTDGIDKLYQITAISRELFESLQKEKREIFEDVQEKITFNFSKVDLPEKYVKKLRLLELMEDTIIFNMAELEIPNLLKAIVEGTVLIPRFLEKEDLIIRIFDEELHEYRGSYFDKVLIKPPIIHWDFYLDSLEDFSFKKVEESIYIAPLFLRATGGFLILTEPPEDLVKTLLKLKKRGEVRTILEGKRITIPINFTLIVDTRHPERYAGLKFPIRINLPPLDDETFLKVLETNLGITPPTEIVRIFPPDYKTFLGVELIKNLFEKLKLTEKGKDEVSLLKEAATIITGGTP |  | 6
